Each block holds one binder with its values, some of them ahead of it.
Tests used:
[1] = biological target: T1, human PD-L1 expressed on cells (human, UniProt Q9NZQ7 19-290); experiment: flow cytometry (FACS), MFI, CHO cells expressing human PD-L1
T1 construct: whole, on cells; also called human PD-L1 expressed on CHO cells; Raji-PD-L1 cells
Method: (§1) Exemplary anti-PD-1/CD137 bi-specific antibodies were analyzed by FACS for their binding properties to human PD-1 and/or human CD137 expressed on CHO cells. Briefly, cultured cells were harvested, counted and cell viability was evaluated using the Trypan Blue exclusion method. Viable cells were then adjusted to 2×10⁶ cells per mL in PBS containing 2% BSA. 100 μL of this cell suspension were further aliquoted per well into a V-bottom 96-well plate. […] After incubation for 2 hours at 4° C., cells were centrifuged (3 min, 1000× g), washed with 250 μL/well BSA-containing FACS Stain Buffer, resuspended and incubated for an additional 1 hour at 4° C. with 100 μL/well fluorochrome-conjugated anti-IgG antibody for detection of the bisepecific antibody. Cells were then washed with 250 μL/well BSA-containing FACS Stain Buffer, resuspended in 100 μL/well FACS Stain Buffer, acquired and analyzed using a FACS machine. Binding of the bispecific antibodies to human PD-1 or human CD137 expressing CHO cells were evaluated and the mean fluorescence intensity is plotted in histograms or dot plots.
Exemplary anti-PD-L1/CD137 bi-specific antibodies were analyzed by FACS for their binding properties to human PD-L1 or human CD137 expressed on CHO cells, following the procedures disclosed in Examples 1 above.

[2] = biological target: T2, ECD portion of human CD137 protein (mouse IgG2a Fc tag) (human, UniProt Q07011 24-186); experiment: bridging ELISA: human CD137 ECD (mouse IgG2a Fc tag) coated, antibody titrated, then human PD-L1 ECD (His tag), HRP anti-His detection; A450-A620
T2 construct: extracellular domain; also called recombinant human CD137; not shown: mouse IgG2a Fc tag
Method: (§2) Exemplary anti-PD-L1/CD137 bi-specific antibodies were analyzed by ELISA for their simultaneous binding to recombinant human PD-L1 and human CD137. Briefly, the ECD portion of human CD137 protein (mouse IgG2a Fc tag) was diluted and coated onto an ELISA plate with a volume of 100 μL/well by incubation at 4° C. overnight. The next day, the plate was blocked with PBST-BSA buffer, then serially diluted samples of anti-PD-L1/CD137 bi-specific antibodies were pipetted into appropriate wells at 50 μL/well, and the plate was incubated for 1 h followed by Washing. Human PD-L1 ECD fragment (His tag) was added into the plate at 50 μL/well. After 1-hour incubation at room temperature, HRP-conjugated anti-His tag antibody was added into the plate at 100 μL/well and […]. The plate was incubated for 1 hour at room temperature followed by washing. TMB substrate solution was added at 100 μL/well and the color development was stopped by adding 100 uL/well Stop Solution (2N H₂SO₄). Absorbance at 450 nm and 620 nm was read by Tecan F200 Pro plate reader. GraphPad 7.0, “[Agonist] vs. response—Variable slope (four parameters)” was used to plot the binding data and calculate binding EC50 values.

[3] = biological target: T3, Human PD-L1 ECD fragment (His tag) (human, UniProt Q9NZQ7 19-238); experiment: as above
T3 construct: extracellular domain; also called recombinant human PD-L1; not shown: His tag
T3 sequence (Q9NZQ7 19-238): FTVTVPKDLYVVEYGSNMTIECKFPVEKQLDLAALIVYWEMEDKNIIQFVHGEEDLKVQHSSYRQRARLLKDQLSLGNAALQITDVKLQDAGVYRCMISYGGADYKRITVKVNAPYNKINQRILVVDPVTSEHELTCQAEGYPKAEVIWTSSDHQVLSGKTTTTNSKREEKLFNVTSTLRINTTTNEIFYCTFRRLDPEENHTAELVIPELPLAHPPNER
Method: as §2

[4] = biological target: T4, human CD137 expressed on cells (human, UniProt Q07011 24-255); experiment: FACS on CHO cells expressing human CD137 (MFI)
T4 construct: whole, on cells; also called 4-1BB; TNFRSF9
T4 sequence (Q07011 24-255): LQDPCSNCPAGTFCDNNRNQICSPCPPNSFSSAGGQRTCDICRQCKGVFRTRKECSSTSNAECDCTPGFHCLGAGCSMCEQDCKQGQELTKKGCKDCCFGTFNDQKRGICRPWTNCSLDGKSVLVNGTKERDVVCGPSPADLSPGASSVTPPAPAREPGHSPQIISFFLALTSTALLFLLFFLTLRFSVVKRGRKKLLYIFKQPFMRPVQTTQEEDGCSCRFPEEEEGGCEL
Method: as §1, with “Anti-GITR/CD137” for “Exemplary anti-PD-1/CD137”, “GITR” for “PD-1”

T1 sequence (Q9NZQ7 19-290): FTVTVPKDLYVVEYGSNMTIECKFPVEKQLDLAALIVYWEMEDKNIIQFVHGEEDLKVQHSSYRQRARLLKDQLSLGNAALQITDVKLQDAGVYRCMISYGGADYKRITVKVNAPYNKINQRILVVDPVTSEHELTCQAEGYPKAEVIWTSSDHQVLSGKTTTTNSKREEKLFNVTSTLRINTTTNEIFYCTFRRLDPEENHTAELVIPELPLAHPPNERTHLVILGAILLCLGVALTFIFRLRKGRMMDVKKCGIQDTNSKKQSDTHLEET

binding result [1]: binds
EC50 (read off the curve) [2]: ~0.1 µg/mL
binding result [3]: binds
B1: Ly346 (bispecific antibody, human IgG1, kappa)
heavy: QVQLVQSGAEVKKPGASVKVSCKASGYTFTDFWMSWVRQAPGQGLEWMGQIYPNTGTTHSNEKFKGRVTMTRDTSTSTVYMELSSLRSEDTAVYYCARSYHISTTPNWFAYWGQGTLVTVSSASTKGPSVFPLAPSSKSTSGGTAALGCLVKDYFPEPVTVSWNSGALTSGVHTFPAVLQSSGLYSLSSVVTVPSSSLGTQTYICNVNHKPSNTKVDKKVEPKSCDKTHTCPPCPAPELLGPSVFLFPPKPKDTLMISRTPEVTCVVVDVSHEDPEVKFNWYVDGVEVHNAKTKPREEQYNSTYRVVSVLTVLHQDWLNGKEYKCKVSNKALPAPIEKTISKAKGQPREPQVYTLPPSREEMTKNQVSLTCLVKGFYPSDIAVEWESNGQPENNYKTTPPVLDSDGSFFLYSKLTVDKSRWQQGNVFSCSVMHEALHNHYTQKSLSLSPGGGGGSGGGGSGGGGSGGGGSQVQLVQSGAEVKKPGASVKVSCKASGYTFAGFEMHWVRQAPGQGLEWMGAIDPKTGGTDYNQKFKDRVTMTRDTSISTAYMELSRLRSDDTAVYYCARDLGYFDVWGQGTLVTVSSGGGGSGGGGSGGGGSGGGGSDIQMTQSPSSLSASVGDRVTITCRASQDIRSNLNWYQQKPGGAVKLLIYYTSRLHSGVPSRFSGSGSGTDYTLTISSLQPEDFATYFCQQSEKLPRTFGGGTKVEIR
light: DIQMTQSPSSLSASVGDRVTITCKASQNVYKKLEWYQQKPGKVPKVLIYHTNILQTGVPSRFSGSGSGTDYTLTISSLQPEDVATYYCYQWNSGPTFGGGTKVEIKRTVAAPSVFIFPPSDEQLKSGTASVVCLLNNFYPREAKVQWKVDNALQSGNSQESVTEQDSKDSTYSLSSTLTLSKADYEKHKVYACEVTHQGLSSPVTKSFNRGEC
notes: Anti-PD-L1/CD137: Ly076 heavy chain fused to Ly1630 scFv (VH-VL); Ly076 light chain

EC50 (read off the curve) [4]: ~0.6 µg/mL
B2: Ly759 (bispecific antibody, human IgG1, kappa)
heavy: QVQLQESGPGLVKPSETLSLTCTVSGFSLTSYNVHWIRQPPGKGLEWIGVIWSGVRTDYNSVLKPRVTISVDTSKNQFSLKLSSVTAADTAVYYCARGTYDDNYHDVMDAWGQGTLVTVSSASTKGPSVFPLAPSSKSTSGGTAALGCLVKDYFPEPVTVSWNSGALTSGVHTFPAVLQSSGLYSLSSVVTVPSSSLGTQTYICNVNHKPSNTKVDKKVEPKSCDKTHTCPPCPAPELLGPSVFLFPPKPKDTLMISRTPEVTCVVVDVSHEDPEVKFNWYVDGVEVHNAKTKPREEQYNSTYRVVSVLTVLHQDWLNGKEYKCKVSNKALPAPIEKTISKAKGQPREPQVYTLPPSREEMTKNQVSLTCLVKGFYPSDIAVEWESNGQPENNYKTTPPVLDSDGSFFLYSKLTVDKSRWQQGNVFSCSVMHEALHNHYTQKSLSLSPGGGGGSGGGGSGGGGSGGGGSQVQLVQSGAEVKKPGASVKVSCKASGYTFAGFEMHWVRQAPGQGLEWMGAIDPKTGGTDYNQKFKDRVTMTRDTSISTAYMELSRLRSDDTAVYYCARDLGYFDVWGQGTLVTVSSGGGGSGGGGSGGGGSGGGGSDIQMTQSPSSLSASVGDRVTITCRASQDIRSNLNWYQQKPGGAVKLLIYYTSRLHSGVPSRFSGSGSGTDYTLTISSLQPEDFATYFCQQSEKLPRTFGGGTKVEIR
light: EIVLTQSPATLSLSPGERATLSCRASKSVRTGMHWYQQKPGQAPRLLIYGASNLESGIPARFSGSGSGTDFTLTISSLEPEDFAVYYCQQSWNHFTFGQGTKLEIKRTVAAPSVFIFPPSDEQLKSGTASVVCLLNNFYPREAKVQWKVDNALQSGNSQESVTEQDSKDSTYSLSSTLTLSKADYEKHKVYACEVTHQGLSSPVTKSFNRGEC
notes: Anti-GITR/CD137: TM685-derived heavy chain fused to Ly1630 scFv (VH-VL); TM685 light chain

EC50 (read off the curve) [4]: ~0.1 µg/mL
B3: Ly756 (bispecific antibody, human IgG1, kappa)
heavy: QVQLVQSGAEVKKPGASVKVSCKASGYTFAGFEMHWVRQAPGQGLEWMGAIDPKTGGTDYNQKFKDRVTMTRDTSISTAYMELSRLRSDDTAVYYCARDLGYFDVWGQGTLVTVSSASTKGPSVFPLAPSSKSTSGGTAALGCLVKDYFPEPVTVSWNSGALTSGVHTFPAVLQSSGLYSLSSVVTVPSSSLGTQTYICNVNHKPSNTKVDKKVEPKSCDKTHTCPPCPAPELLGPSVFLFPPKPKDTLMISRTPEVTCVVVDVSHEDPEVKFNWYVDGVEVHNAKTKPREEQYNSTYRVVSVLTVLHQDWLNGKEYKCKVSNKALPAPIEKTISKAKGQPREPQVYTLPPSREEMTKNQVSLTCLVKGFYPSDIAVEWESNGQPENNYKTTPPVLDSDGSFFLYSKLTVDKSRWQQGNVFSCSVMHEALHNHYTQKSLSLSPGK
light: DIQMTQSPSSLSASVGDRVTITCRASQDIRSNLNWYQQKPGGAVKLLIYYTSRLHSGVPSRFSGSGSGTDYTLTISSLQPEDFATYFCQQSEKLPRTFGGGTKVEIRRTVAAPSVFIFPPSDEQLKSGTASVVCLLNNFYPREAKVQWKVDNALQSGNSQESVTEQDSKDSTYSLSSTLTLSKADYEKHKVYACEVTHQGLSSPVTKSFNRGECGGGGSGGGGSGGGGSGGGGSEIVLTQSPATLSLSPGERATLSCRASKSVRTGMHWYQQKPGQAPRLLIYGASNLESGIPARFSGSGSGTDFTLTISSLEPEDFAVYYCQQSWNHFTFGQGTKLEIKGGGGSGGGGSGGGGSGGGGSQVQLQESGPGLVKPSETLSLTCTVSGFSLTSYNVHWIRQPPGKGLEWIGVIWSGVRTDYNSVLKPRVTISVDTSKNQFSLKLSSVTAADTAVYYCARGTYDDNYHDVMDAWGQGTLVTVSS
notes: Anti-GITR/CD137: Ly1630 heavy chain; Ly1630 light chain fused to TM685 scFv (VL-VH)

EC50 (read off the curve) [4]: ~0.2 µg/mL
B4: Ly757 (bispecific antibody, human IgG1, kappa)
heavy: B3 heavy
light: DIQMTQSPSSLSASVGDRVTITCRASQDIRSNLNWYQQKPGGAVKLLIYYTSRLHSGVPSRFSGSGSGTDYTLTISSLQPEDFATYFCQQSEKLPRTFGGGTKVEIRRTVAAPSVFIFPPSDEQLKSGTASVVCLLNNFYPREAKVQWKVDNALQSGNSQESVTEQDSKDSTYSLSSTLTLSKADYEKHKVYACEVTHQGLSSPVTKSFNRGECGGGGSGGGGSGGGGSGGGGSQVQLQESGPGLVKPSETLSLTCTVSGFSLTSYNVHWIRQPPGKGLEWIGVIWSGVRTDYNSVLKPRVTISVDTSKNQFSLKLSSVTAADTAVYYCARGTYDDNYHDVMDAWGQGTLVTVSSGGGGSGGGGSGGGGSGGGGSEIVLTQSPATLSLSPGERATLSCRASKSVRTGMHWYQQKPGQAPRLLIYGASNLESGIPARFSGSGSGTDFTLTISSLEPEDFAVYYCQQSWNHFTFGQGTKLEIK
notes: Anti-GITR/CD137: Ly1630 heavy chain; Ly1630 light chain fused to TM685 scFv (VH-VL)

Reference: patent US20230406950A1 (LYVGEN BIOPHARMA, published 2023)
